Experimental data reported in patent US20140377215A1 (BOARD OF TRUSTEES OF THE UNIVERSITY OF ARKANSAS, published 2014).

How the values were obtained:
[1] = target: [11PROXYL-(POG)3PCG(POG)4]3; assay: 1H-15N HSQC NMR titration
[2] = target: [(POG)3PCG(POG)4]3; assay: 1H-15N HSQC NMR titration

B1: collagen-binding domain (CBD), s3b (Gly893-Lys1008) peptide derived from Clostridium histolyticum cl (other)
chain: GNEKLKEKENNDSSDKATVIPNFNTTMQGSLLGDDSRDYYSFEVKEEGEVNIELDKKDEFGVTWTLHPESNINDRITYGQVDGNKVSNKVKLRPGKYYLLVYKYSGSGNYELRVNK
notes: range 893-1008
binding result [1]: binds
binding result [2]: binds
